Measured values published in the supplement of paper PMC12042874.
± gives the uncertainty stated by the source.

Test: amyloid nucleation score (Sup35N fusion, yeast selection) (log enrichment); library NNK3; higher = more nucleation; inactive = no reads after selection
Method in brief: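 In psi-negative yeast, Sup35N fusions carrying peptides of 20 random codons were induced with 100 μM copper sulfate for 24 hours. The cells then grew 7 days at 30°C on medium lacking adenine and uracil, and plasmid inserts from input and output were Illumina-sequenced, excluding sequences with under 100 input reads. Nucleation score is the DiMSum log enrichment of output over input reads, centred on the mode score of non-aggregating sequences.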

| Substance | amyloid nucleation score |
| --- | --- |
| VCRGQRISACQSRSVCGCWH | inactive |
| THLFRYKTASTDGCNESKAV | inactive |
| IMVKVW | inactive |
| CARRNLAVNYKYWFVGEHYI | inactive |
| KLCTVINRLYLHRGGNSNSQ | inactive |
| VTKPFTIKGTI | inactive |
| GRWMMWFIEFYNGRQESWGN | inactive |
| LRRRVKSFSELYLAVTRVML | 0.286 ± 0.43 |
| MCLSMVKISKNKLSFTGFLI | inactive |
| MICRSSGFLYGCSWFGILYL | inactive |
| QSCCF | inactive |
| SSVSFVITGPVAFVWNQGLV | 2.56 ± 0.083 |
| VVQGGGELVWFMFYDARCGT | inactive |
| CCSSCVWGRVFRSSAMPPRI | inactive |
| KFSLCSVACFNK | 2.88 ± 0.052 |
| MKSQVHNIKWLPTCS | inactive |
| MPPRVRYR | inactive |
| SESYPTRLSGRKILTRALT | inactive |
| ITRWLIVLAVMYYSILSLSV | inactive |
| YFYIPGH | inactive |
| HNSRFPSF | 0.338 ± 0.58 |
| IVMRPSIGMILYSRSPFVYS | inactive |
| THKVWFKCVDAYNLAYVNSI | inactive |

| Substance | amyloid nucleation score |
| --- | --- |
| GILNFAL | inactive |
| PQDQDDVKVLSRGVRYVWGH | inactive |
| IYSVGYRSS | inactive |
| LEASESGIVEVPQPNYCITP | inactive |
| VCYLFWDVWVFLGEVTANT | inactive |
| MPEVCDLMDHIICVCYGYID | inactive |
| KAPRCGVKAMLKGVMGFRRR | 0.531 ± 0.24 |
| AIPLYWIEFRVRKLSSLFLQ | inactive |
| VGSIYDSHNLPMSGHSDWNG | inactive |
| RDYKAHYLRCLYLWTMSLP | inactive |
| LVSHLIGFSCRFNPRSERFC | 1.29 ± 0.1 |
| SKRNPRMRSQLFIGDYFAYP | -1.13 ± 1.9 |
| FILNRLTRIIWDF | inactive |
| VAFSFYFNSILVSVTRIVGS | 0.773 ± 0.15 |
| TCFFISSIFSFDKHVIVCCA | 0.536 ± 0.32 |
| DFVTHWSVAMLMI | inactive |
| GKVYLYLCLGMMFGL | inactive |
| LASRSHKHINATLAHLNPLL | inactive |
| ISCLDGCFS | inactive |
| NEMHFLS | inactive |
| SYFSYPCCCCVVARFLNYVC | inactive |
| GIRHVGLVGTMSRKDWSYFR | inactive |
| GISALSVWFCISDRRSDQDH | 2.63 ± 0.057 |

| Substance | amyloid nucleation score |
| --- | --- |
| HVDPCWQKTFTMMLFWVFLR | inactive |
| RYNWVYDFVLNRSSYWCW | inactive |
| IEDQHLHVVLTGWGSKLSGH | inactive |
| IFMITDQ | inactive |
| FRNLSDVLVRLFPVQLLSYP | inactive |
| SLFKEWAWA | inactive |
| IFQKIECLTGMGIVGCSTSM | inactive |
| TMHQLHKFFLHMKGASIDSV | inactive |
| GVKTHGIAVMKVGLRRLCQG | inactive |
| VSLILFGRIFFHL | inactive |
| ICKNYSVLVLRFGGSEGPTV | 1.52 ± 0.1 |
| YWNMKNFCSTTIIHRKGRFG | 0.65 ± 0.16 |
| ACVRKIIKVGYFYERISIRV | inactive |
| WGMICIVYCVGIDMWLYVKC | inactive |
| WMDIYW | 0.403 ± 0.24 |
| MSEVPGMNDTWRVCIMDQGK | inactive |
| NYFYGYQACVVHGISFTMGQ | 0.956 ± 0.19 |
| LMETSSRYTFYMKGLHRTMS | 0.428 ± 0.27 |
| KSYSAWSTVRDSKPTVLGN | inactive |
| DLVRAMRCHSVGDVGYASSS | inactive |
| RDIQYLCKYLRSMMHRGQAH | inactive |
| NGIMLQIRNPSSKLNNLLWF | inactive |
| WDKMYDDEGKGIVLEVVFLR | -0.012 ± 0.87 |

| Substance | amyloid nucleation score |
| --- | --- |
| GRCMEGS | inactive |
| DANWDTLIFLSSRMNAWRYK | 1.86 ± 0.077 |
| WLVGICWNWRWHLAVAGVVG | inactive |
| SYCLTGTDSVINVIGAGPSQ | inactive |
| FVTIRGVRRTCNPFKGINYG | inactive |
| DSMLVISVRVRTCMLGNVVA | inactive |
| KFMCSNAF | inactive |
| RSHECGGSLMFVKLGCG | inactive |
| AMCALVSIRP | inactive |
| EKMAADQSS | inactive |
| SYSLNNYMTKLVWIYVSWLL | inactive |
| GLEFRARRKCRTKGELHDK | inactive |
| WNTGNMLPSVFTQMFA | inactive |
| LPALEQNVLHLVMVIY | inactive |
| QGNAVHRDASSGWMNSAFDR | inactive |
| RRYDNYRYSHRMFFKRFQAV | inactive |
| ANSWIILHSNHFLQFVGIAS | inactive |
| EGRSNNLCSSSSLWQVHAAL | inactive |
| ALSYLSVLRSMLSRVVLCYL | inactive |
| EERRDLAPTDLTWKDFRALQ | inactive |
| AIVCMHYQVVHCVKVSTCCY | inactive |
| RKNAVCICSNL | inactive |
| CWLPFVCCAQCLNRIDVVSR | 2.32 ± 0.066 |

| Substance | amyloid nucleation score |
| --- | --- |
| FSSRDWNYSSRMVKIRNGRF | inactive |
| YTNHFVDLGMVKLVLFTWNM | 1.63 ± 0.11 |
| SDTSSCCYTCVYISYVDHFF | 2.41 ± 0.052 |
| GDLSS | inactive |
| RTSYVNLLYIMLDLLIRFRS | inactive |
| DMSPRMTLSIKSA | inactive |
| GVGSRG | inactive |
| NLSNIFQSNMYVTRSVNGVR | 1.68 ± 0.084 |
| WFGKPFYTYSKSSWRMLYQL | inactive |
| HPLDYTVGSVVMGV | inactive |
| FCWVLCTP | inactive |
| VSFMFFACDTFFSHAVIRTR | inactive |
| VPEVG | inactive |
| RNISRS | inactive |
| CYWKLYCGNEYYGVSFMGVL | inactive |
| WLSGACEPPF | 0.718 ± 0.28 |
| IMGYGWDCTSDGLCVTCFYS | inactive |
| KNYCGKNEYVLCTD | inactive |
| NYLYPKLITYYLTSGLRWII | inactive |
| NLSVAMRLICVTLFLVLLGI | inactive |
| YSRLTLVAEPFYNMGVKNLM | inactive |
| EGMEWVVEDNFRKMCYTARF | inactive |
| PLLFSRVSLDL | inactive |

| Substance | amyloid nucleation score |
| --- | --- |
| QTHSMGDSECYL | inactive |
| RTMAFLIFS | 0.172 ± 0.56 |
| LKVNIWLPGRPFTILWSPRR | inactive |
| ALNWISYREMHIFIAYFADS | inactive |
| TLASQFSFLVS | inactive |
| GTISIGSIRAVLLAFPFYAL | 1.08 ± 0.13 |
| ATEDPKLESGCVAEIVPFRG | -0.481 ± 1.4 |
| WFSYQFV | inactive |
| ILPGRHCGGASMHTQTCQ | inactive |
| RCGILW | inactive |
| GRGTYGSNPYRGLDIYRYDG | inactive |
| RRFVVGYRDLMMRFIVRHGE | 0.403 ± 0.24 |
| MHAMCQLWCSS | -0.323 ± 1.4 |
| YVLLVWDCRLFSVRISFRSV | inactive |
| IWKAWDNSSMGCPS | -0.032 ± 0.33 |
| YGCRRDIFKYSMTLLMDAID | inactive |
| TTHNAFMSNNNIR | 0.711 ± 0.13 |
| YLLSIEYVNLAIVDNSWRMF | 1.04 ± 0.094 |
| ALCCVRPFGNEDKREVMYSN | 0.604 ± 0.24 |
| FVISYELWAVSERNWSFEMR | inactive |
| LILAQVLWFGFETGGKLETM | inactive |
| VMLCHFDMYF | 1.45 ± 0.092 |
| YGAMSAGDMETY | inactive |

| Substance | amyloid nucleation score |
| --- | --- |
| YMYQLKYYASEMNWVYSYSI | inactive |
| SRRNIPVGGLSNWLPVWSVG | inactive |
| IKSHVAIDSVPER | inactive |
| NRNRYMFLITITHY | inactive |
| DGLSLPPMMVNRVQTATQSR | inactive |
| CSLVLSESPFGNI | inactive |
| TTSEAIMLGCSISTYNQSGN | inactive |
| DRFFTSFSVCSPNDDKGLL | inactive |
| LSVELCTCGVRPQATYYPQG | 1.31 ± 0.13 |
| QHSLGG | inactive |
| QRLIRMSFSMAHMTSNFVMV | inactive |
| GVSVCVGDVGNLAAFECFRA | inactive |
| KQLHLMLIVQIVATKTVNAP | inactive |
| MVHPDTRKRQTRGTG | inactive |
| LCHWFL | inactive |
| FIHLMLNMRFWRNTFNMPHA | inactive |
| HIWVCHWRYYVIMLPRSAWI | inactive |
| FPSKCCANKSSYLGWTSLCW | inactive |
| ILYVLCIFLCGAAIFSLTVL | inactive |
| CACIPNFPCKSYHYWRSCNI | inactive |
| ENERM | inactive |
